{
  "source": "paper PMC10403728",
  "about": "“Interactions between Fkh1 monomers stabilize its binding to DNA replication origins” (The Journal of Biological Chemistry, 2023)",
  "proteins": {"B1": {"name": "full-length Fkh1 (natural protein, Saccharomyces cerevisiae, UniProt P40466 1-484, looked up)", "chain": "MSVTSREQKFSGKYSSYTAQDRQGLVNAVTCVLSSSSDPVAVSSDYSNSLSIAREVNAYAKIAGCDWTYYVQKLEVTIGRNTDSLNLNAVPGTVVKKNIDIDLGPAKIVSRKHAAIRFNLESGSWELQIFGRNGAKVNFRRIPTGPDSPPTVLQSGCIIDIGGVQMIFILPEQETIISDYCLNHLMPKLLSTYGTNGNNNPLLRNIIEGSTYLREQRLQEEARLQQLDHLHTPLSSSSDVNPIGDPHGDTIMMEEDEEDENYTRGGIRPNTYTSSSNNAVTNGNVPHIENPSDLSLDENRYIKPPQSYASMITQAILSTPEGSISLADIYKFISDNYAFYRFSQMAWQNSVRHNLSLNKAFEKVPKRAGQQGKGMNWKISDEVRRDFLNKWNAGKLSKIRRGASVTRQLQLHMSKFGEIPAPESSSIDPRGIKAQKVKKSLQATSSILGESAPQLQRTQLTGQISTTTSMDVTTNANVNNSSLS", "notes": "Fkh1, Forkhead family transcription factor of Saccharomyces cerevisiae, full length (the truncation Δ410–484 tells a length of 484 residues); also called wild-type Fkh1; FLAG-tagged full-length Fkh1; source: S. cerevisiae (W303 derivative), GAL1-10 promoter, galactose-induced; also in whole-cell extract of a strain co-expressing two differently tagged copies; not shown: FLAG, N-terminal, kept"}},
  "molecular_target": "the molecule itself",
  "assay": "SEC + other: glycerol gradient sedimentation; purified FLAG-Fkh1; Superdex 200 5/150 GL in 150N buffer (25 mM Hepes-NaOH pH 7.6, 150 mM NaCl, 10% glycerol, 1 mM β-mercaptoethanol); main-peak and shoulder fractions on 10 to 15% glycerol gradients, 180,000g, 18 h, 4 °C; approximate molecular weight from Stokes radius and S value; monomer and dimer",
  "data": [
    {"protein": "B1", "values": [
      {"measurement": "stoichiometry N", "result": 2}
    ]}
  ]
}
